# Assay results from patent US20250051442A1 (UNIVERSITY OF TSUKUBA, published 2025).
# T1: human DNAM-1 (human, UniProt Q15762 19-336)
# T1 construct: whole, on cells; also called hDNAM-1; CD226
# T1 sequence (looked up): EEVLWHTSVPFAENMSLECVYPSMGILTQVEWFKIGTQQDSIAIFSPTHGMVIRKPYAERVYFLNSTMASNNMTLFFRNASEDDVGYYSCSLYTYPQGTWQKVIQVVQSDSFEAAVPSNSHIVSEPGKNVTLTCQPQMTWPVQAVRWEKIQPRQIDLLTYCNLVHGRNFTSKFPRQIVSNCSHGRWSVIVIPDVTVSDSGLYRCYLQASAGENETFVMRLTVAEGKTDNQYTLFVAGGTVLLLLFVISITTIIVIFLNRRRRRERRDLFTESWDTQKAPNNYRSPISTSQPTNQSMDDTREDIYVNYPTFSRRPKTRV
# Experiments:
# human DNAM-1 [1] = molecular target: T1, human DNAM-1; assay: flow cytometry on BW5147 cells stably expressing human DNAM-1 (hDNAM-1/BW)
# human DNAM-1 [2] = molecular target: T1, human DNAM-1; assay: flow cytometry on hDNAM-1/BW cells, antibody purified from CHO-K1
# Method: Binding to human DNAM-1 was examined by flow cytometry using a mouse lymphoblast BW5147 cell line (hereinafter, may be referred to as “BW”) and BW5147 stably expressing human hDNAM-1 (hereinafter, may be referred to as “hDNAM-1/BW”). Test antibodies at various concentrations were incubated with about […] hDNAM-1/BW cells at 4° C. for 1 hour in PBS (FACS buffer) containing 0.5% BSA and 0.05% NaN3. Thereafter, the cells were washed with ice-cooled FACS Buffer, and incubated at 4° C. for 30 minutes using a PE-labeled goat anti-human IgG antibody (manufactured by SouthernBiotech). After washing with FACS buffer, the stained cells were analyzed using a FACScan flow cytometer (manufactured by BD Biosciences).
Binder,EC50 (human DNAM-1 [1]) [µg/mL],EC50 (human DNAM-1 [2]) [µg/mL]
"anti-human DNAM-1 monoclonal antibody mAKB1 (antibody, V domains shown, also called clone mAKB1) VH: DVQLQESGPGLVKPSQSLSLTCSVTGYSITSGYYWNWIRQFPGNKLEWMGYISYDGSNNYNPSLKNRISITRDTSKNQFFLKLNSVTTEDTATYYCARAYYGNYVGYFDVWGAGTTVTVSS VL: SIVMTQTPKFLLVSAGDRVTITCKASQSVSNDVAWYQQKPGQSPKLLIYYASNRYTGVPDRFTGSGYGTDFTFTISTVQAEDLAVYFCQQDYSSPLTFGAGTKLELKR",6,
"humanized anti-DNAM-1 antibody hAKB1-B (antibody, human IgG1, kappa, L234A L235A, V domains shown, Full chains without signal peptide; also called phAKB1-B (expression vector); hAKB1-VH2 + hAKB1-VL1) VH: QVQLQESGPGLVKPSETLSLTCTVSGYSISSGYYWNWIRQPPGKGLEWMGYISYDGSNNYNPSLKNRVTISRDTSKNQFSLKLSSVTAADTAVYYCARAYYGNYVGYFDVWGQGTTVTVSS VL: DIQMTQSPSSLSASVGDRVTITCKASQSVSNDVAWYQQKPGKAPKLLIYYASNRYTGVPSRFSGSGYGTDFTFTISSLQPEDIATYYCQQDYSSPLTFGGGTKVEIKR",,5
"humanized anti-DNAM-1 antibody hAKB1-A (antibody, human IgG1, kappa, L234A L235A, V domains shown, Full chains without signal peptide; also called phAKB1-A (expression vector); hAKB1-VH1 + hAKB1-VL1) VH: QVQLQESGPGLVKPSETLSLTCTVSGYSITSGYYWNWIRQPPGKGLEWMGYISYDGSNNYNPSLKNRVTISRDTSKNQFSLKLSSVTAADTAVYYCARAYYGNYVGYFDVWGQGTTVTVSS VL: DIQMTQSPSSLSASVGDRVTITCKASQSVSNDVAWYQQKPGKAPKLLIYYASNRYTGVPSRFSGSGYGTDFTFTISSLQPEDIATYYCQQDYSSPLTFGGGTKVEIKR",,5
